Results on two substances are retold here after publication PMC12245071.

The target in the experiment is Bacteriophage T4 capsid, major capsid protein gp23* (bacteriophage T4). Briefly: co-sedimentation.

“M2e-Hoc fusion (influenza M2e peptide on the tip of the T4 Hoc fiber)” displayed a copies per capsid (copies per capsid) of 90.

In the case of “Soc-SpyCatcher displayed on the T4 phage capsid (T4-SpyCatcher phage) (designed binder)”, the copies per capsid (copies per capsid) was 205.
